Results taken from publication PMC4772073.

Molecular target: dUltramarine2
Assay: SEC; gel filtration chromatography; conditions not given in the main text (Supplementary Fig. 7)

stoichiometry N: 2
Substance: dUltramarine2
